Results taken from publication PMC4222680.

How the values were obtained:
[1] = target: TDG G199S G199S (human (rs4135113 variant)) (UniProt Q13569); assay: EMSA; conditions: tetrahydrofuran abasic analog (X, written N) at position 17 of strand 2, opposite A12 of strand 1; 20 mM HEPES pH 7.3, 1 mM EDTA, 10 mM (NH4)2SO4, 1 mM DTT, 0.2% Tween-20, 30 mM KCl; 2 nM DNA, 30 min at room temperature; 6% native PAGE at 4 C
[2] = target: TDG WT (human) (UniProt Q13569); assay: EMSA; conditions: tetrahydrofuran abasic analog (X, written N) at position 17 of strand 2, opposite A12 of strand 1; 20 mM HEPES pH 7.3, 1 mM EDTA, 10 mM (NH4)2SO4, 1 mM DTT, 0.2% Tween-20, 30 mM KCl; 2 nM DNA, 30 min at room temperature; 6% native PAGE at 4 C
TDG WT (human), sequence (Q13569 whole entry): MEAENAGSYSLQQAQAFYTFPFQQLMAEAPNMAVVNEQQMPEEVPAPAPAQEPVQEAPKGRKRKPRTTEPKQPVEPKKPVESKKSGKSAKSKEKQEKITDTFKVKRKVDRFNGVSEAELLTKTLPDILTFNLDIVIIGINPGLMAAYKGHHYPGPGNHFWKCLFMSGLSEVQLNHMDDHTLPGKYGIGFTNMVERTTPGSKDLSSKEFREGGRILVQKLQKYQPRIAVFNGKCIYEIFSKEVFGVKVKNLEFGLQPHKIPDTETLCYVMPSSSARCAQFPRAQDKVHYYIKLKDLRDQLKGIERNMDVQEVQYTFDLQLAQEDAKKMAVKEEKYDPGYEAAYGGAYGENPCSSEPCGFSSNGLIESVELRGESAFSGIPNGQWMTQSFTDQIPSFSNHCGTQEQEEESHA

TDG G199S G199S (human (rs4135113 variant)), sequence (Q13569 whole entry G199S): as the sequence (Q13569 whole entry) above, with G199S counted along it

CAGCTCTGTACATGAGCAGTGGTGACAC / GTGTCACCACTGCTCANGTACAGAGCTG [28-mer THF:A]
Kd [1]: 35 nM | Kd [2]: 153 nM
